The values that follow come from article PMC10318635, “ER Ca^2+ overload activates the IRE1α signaling and promotes cell survival” (Cell & Bioscience, 2023).

The target in the assay is T1, Flag-tagged IRE1α-LD (UniProt O75460 19-440).
T1 construct: signal peptide in the construct; inositol-requiring enzyme 1 (IRE1α/ERN1), luminal domain (LD), residues 1-440; The signal peptide is probably removed in HEK-293T cells; also called IRE1α-LD-FLAG; LD-FLAG; source: HEK-293T, purified (M2 beads, eluted with Flag peptide, concentrated by ultrafiltration)
T1 sequence (looked up): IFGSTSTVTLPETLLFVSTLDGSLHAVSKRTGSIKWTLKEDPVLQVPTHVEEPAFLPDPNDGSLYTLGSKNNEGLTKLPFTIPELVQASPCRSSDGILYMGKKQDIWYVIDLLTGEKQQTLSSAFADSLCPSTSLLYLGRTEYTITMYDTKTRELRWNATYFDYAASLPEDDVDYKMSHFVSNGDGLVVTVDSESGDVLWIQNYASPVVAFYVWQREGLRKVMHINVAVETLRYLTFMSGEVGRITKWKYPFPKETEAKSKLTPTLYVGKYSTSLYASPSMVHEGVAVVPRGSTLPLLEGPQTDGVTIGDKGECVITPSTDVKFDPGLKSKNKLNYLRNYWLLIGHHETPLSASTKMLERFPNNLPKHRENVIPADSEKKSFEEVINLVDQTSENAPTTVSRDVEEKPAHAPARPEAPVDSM
The assay is described as follows: pull-down; GST-BiP-NBD immobilized on glutathione Sepharose 4B beads, incubated with IRE1α-LD-FLAG eluate in buffer B (50 mM HEPES, 75 mM NaCl, 10% glycerol, 1 mM TCEP, pH 7.5) with 0.5 or 0.8 mM Ca2+, room temperature, 2 h; anti-FLAG immunoblot. To be noted: both partners purified.

B1: GST-tagged BiP-nucleotide binding domain (NBD) (domain or fragment)
chain: not shown
notes: also called GST-BiP-NBD; BiP-NBD; source: bacterially purified, immobilized on glutathione Sepharose 4B beads
Consider B1, for which the binding result is “binds”.
